Reference: US20240317844A1

Target: survivin (UniProt O15392)
Experiment: method not stated

B1: mAb 2C2E7 (antibody, V domains shown)
VH: QIQLVQSGPELKKPGETVKISCKASGYTFTTYGMSWVKQAPGRGLKWMGWINPYSGVPTYAVDFKGRFAFSLETSASTAYLQINNLKNEDTATYFCARGGRRGDFGYWGQGTTLTVSS
VL: QIGLTQSPAIMSASPGEKVTMTCSASSSISYMHWYQQKPGTSPKTWIYDTSKLASGVPARFSGSGSGTSYSLTISSMEAEDAATYYCHQRSSHHTFGGGTKLEIK
Kd: 0.56 nM
